Substrate: O=C(O)c1ccc(O)c(O)c1
Experiment: spectrophotometric CHMS formation, nonlinear Michaelis-Menten fit
Format: biochemical, Pseudarthrobacter phenanthrenivorans
Conditions: 100 mM glycine-NaOH pH 9.5, 20 °C, co-substrate O2, Fe(II)/L-ascorbate preincubation likely, not stated for the Km

B1: PcaA (PCA 4,5-dioxygenase) (Pseudarthrobacter phenanthrenivorans Sphe3) (protein)
chain: MTLDKPYNDVPGTTIFDADQARKGYNLNQFCMSLMKPENRERYLADRGAYLDEWPLNPVQRQAVLDIDLNTCIAEGGNIYFLAKIGATHGLSFQQMAGSMTGMSEAAYRDMMIGGGRRPEGNRLKDLDGWTPPEPGEKAETVRQDAPAQYTSALFTSHVPAIGAAMDLGKTEEPYWKKVFSGYEWTREWAKENLPDVVILVYNDHATAFDSSIIPTFVLGTGAEYPVADEGYGPRPVPDVKGYPELAAHIAQSVIQDDFDLTLVNEMVVDHGLTVPLSLVYGDVEEWPVRVIPLAVNVVQYPVPSGRRCYELGRALRRALDKWDGEPLNVQIWGTGGMSHQLQGPRAGLINEEWDNAFLDHLIADPVGLTEWQHMEYVDEAGSEGIELVDWLIARGAMDDQFGGESPEVNHRFYHVPASNTAVGHLVLTNQTD
notes: full-length single-subunit alpha-beta fusion from plasmid pASPHE302; 1302 bp amplicon NdeI/XhoI in pET29c(+), His-column purified from E. coli BL21(DE3); ~45 kDa on SDS-PAGE, predicted 48 kDa
B1 showed a Km of 21 ± 1.6 µM.

From paper PMC8431788, “Characterization of Protocatechuate 4,5-Dioxygenase from Pseudarthrobacter phenanthrenivorans Sphe3 and In Situ Reaction Monitoring in the NMR Tube” (International Journal of Molecular Sciences, 2021)
